Experimental findings from publication doi:10.1101/536094 (bioRxiv, 2019) are described below.

Where “and” joins values, the source holds several entries; their conditions need not be identical. Equal values may be shown once.

Series [1] deals with Chlamydomonas reinhardtii CaMKII hub domain (Chlamydomonas reinhardtii). The series is described as follows: native MS.
The target is the same in series [2]. Description: crystal structure.
Series [3] deals with Gonium pectoral CaMKII hub domain (Gonium pectoral). The series is described as follows: native MS.
Series [4] deals with Volvox carteri f. nagarensis CaMKII hub domain (Volvox carteri f. nagarensis). The series is described as follows: native MS.
The series “native MS” deals with the molecule itself. The series is described as follows: native MS.
The series “crystal structure” concerns the molecule itself. The series is described as follows: crystal structure.

As to “Chlamydomonas reinhardtii CaMKII hub domain (domain or fragment)”, the stoichiometry N in series [1] and in series [2] was 18 subunits in each case.
For “Gonium pectoral CaMKII hub domain (domain or fragment)”, the stoichiometry N (in general, the number of molecules, sites or subunits per partner or assembly) in series [3] was 16 subunits and 18 subunits.
On to “Volvox carteri f. nagarensis CaMKII hub domain (domain or fragment)”, for which the stoichiometry N in series [4] is 18 subunits and 20 subunits.

B1: wild-type human CaMKII-α hub domain (domain or fragment, UniProt Q9UQM7 345-475, looked up)
chain: VRKQEIIKVTEQLIEAISNGDFESYTKMCDPGMTAFEPEALGNLVEGLDFHRFYFENLWSRNSKPVHTTILNPHIHLMGDESACIAYIRITQYLDAGGIPRTAQSEETRVWHRRDGKWQIVHFHRSGAPSV
As to B1, the “stoichiometry N” value in the series “native MS” is 12 subunits and 14 subunits.

B2: six-mutant human CaMKII-α hub domain (domain or fragment, UniProt Q9UQM7 345-475, looked up)
chain: VRKQEIIKVNQQLIEAISNGDFESYTKMCDPGMTAFEPEALGNLVEGLDFHRFYFENLWSRNSKPVHNTMLNPHIHLMGDESACIAYIRITQYLDAGGIPRTAQSEETRVWHRRDGKWQHVHMHRSGAPSV
On to B2, for which the results for the “stoichiometry N” value in the series “crystal structure” and in the series “native MS” were 14 subunits and 16 subunits, respectively.
